# Source: IntAct's records for PubMed 9502724
# B1: Mothers against decapentaplegic homolog (Drosophila melanogaster (Fruit fly)), O62609 (parent)
# chain: MGGGSGACPPAHMYGAVAPQDIIVRDMVQMPPPPSNAPTSADACLSIVHSLMCHRQGGESEGFAKRAIESLVKKLKEKRDELDSLITAITTNGAHPSKCVTIQRTLDGRLQVAGRKGFPHVIYARIWRWPDLHKNELKHVKYCAFAFDLKCDSVCVNPYHYERVVSPGIDLSGLSLQSGPSRLVKDEYSAGPLVGSMDIDGNDIGTIQHHPTQMVGPGGYGYPQGPSEYVGDANPMSAMFPTGRTIPKIEPQDGVAGSRGSWMVPPPPRLGQPPQQQQQQPQQQTPQPTQQQQAQSQAAAHSLPVPHGMPGMPGPMNPGPVMAPPPPPQQAQNPQGNGVHHTQANSPTDPASALAMQQQQQQQQQQQQQQQQQQQQSGGVPNGSVNAGGGAAAGGQYYGQPPPVSQMQGAGGGGTSVAPSVHAQQNGYVSQPGSAGSAPVGGGGVFGTAQPTPQQPQQPPTGVQANTGSAGAQAGAGGGAAGTWTGPNTLTYTQSMQPPDPRSLPGGFWNSSLSGDLGSPQQTPPQQQQQQQQPRLLSRQPPPEYWCSIAYFELDTQVGETFKVPSAKPNVIIDGYVDPSGGNRFCLGALSNVHRTEQSERARLHIGKGVQLDLRGEGDVWLRCLSDNSVFVQSYYLDREAGRTPGDAVHKIYPAACIKVFDLRQCHQQMHSLATNAQAAAAAQAAAVAGVANQQMGGGGRSMTAAAGIGVDDLRRLCILRLSFVKGWGPDYPRQSIKETPCWIEVHLHRALQLLDEVLHAMPIDGPRAAA
# B2: Protein mothers against dpp (Drosophila melanogaster (Fruit fly)), P42003 (parent)
# chain: MDTDDVESNTSSAMSTLGSLFSFTSPAVKKLLGWKQGDEEEKWAEKAVDSLVKKLKKRKGAIEELERALSCPGQPSKCVTIPRSLDGRLQVSHRKGLPHVIYCRVWRWPDLQSHHELKPLELCQYPFSAKQKEVCINPYHYKRVESPVLPPVLVPRHSEFAPGHSMLQFNHVAEPSMPHNVSYSNSGFNSHSLSTSNTSVGSPSSVNSNPNSPYDSLAGTPPPAYSPSEDGNSNNPNDGGQLLDAQMGDVAQVSYSEPAFWASIAYYELNCRVGEVFHCNNNSVIVDGFTNPSNNSDRCCLGQLSNVNRNSTIENTRRHIGKGVHLYYVTGEVYAECLSDSAIFVQSRNCNYHHGFHPSTVCKIPPGCSLKIFNNQEFAQLLSQSVNNGFEAVYELTKMCTIRMSFVKGWGAEYHRQDVTSTPCWIEIHLHGPLQWLDKVLTQMGSPHNAISSVS
# Variants of: B1
# Details: with mad_drome Mad, P42003
row,Variant,effect of a mutation on the interaction
1,G727D,disrupting interaction strength
2,C99S,with no effect

# Variants of: B2
# Details: with Med, O62609
row,Variant,effect of a mutation on the interaction
1,S452A;S453A;S455A,disrupting interaction strength
